{"source": "paper PMC12747287", "about": "“Human O-GlcNAcase catalytic-stalk dimer anchors flexible histone binding domains” (Research Square, 2025)", "binders": {"B1": {"name": "histone H4 1-19 peptide, K5,8,12,16Ac (peptide, UniProt P62805 2-20, looked up)", "peptide": "SGRGKGGKGLGKGGAKRHR", "modifications": "acetyl-lysine at K5, K8, K12 and K16", "notes": "histone H4 tail peptide, residues 1-19; also called H4 1-19 K5,8,12,16Ac; H4K^5,8,12,16Ac; source: bought: Active Motif MODified Histone Peptide Array (peptide on the array)"}}, "biological_target": "T1, full length human O-GlcNAcase, long isoform (OGA-L) (human, UniProt O60502 1-916)", "T1 construct": "human O-GlcNAcase, long isoform (OGA-L), 103 kDa, full length; Dimer in the cryo-EM structure; The methods name an anti-c-Myc antibody beside the anti-His6 antibody; the 'C-term' tag may be c-Myc; also called hOGA; full-length OGA; source: E. coli TOP10 (pBAD/HisA, codon optimized), purified (Talon resin for the arrays; HisTrap and size-exclusion chromatography for cryo-EM); not shown: His6, …", "T1 sequence (looked up)": "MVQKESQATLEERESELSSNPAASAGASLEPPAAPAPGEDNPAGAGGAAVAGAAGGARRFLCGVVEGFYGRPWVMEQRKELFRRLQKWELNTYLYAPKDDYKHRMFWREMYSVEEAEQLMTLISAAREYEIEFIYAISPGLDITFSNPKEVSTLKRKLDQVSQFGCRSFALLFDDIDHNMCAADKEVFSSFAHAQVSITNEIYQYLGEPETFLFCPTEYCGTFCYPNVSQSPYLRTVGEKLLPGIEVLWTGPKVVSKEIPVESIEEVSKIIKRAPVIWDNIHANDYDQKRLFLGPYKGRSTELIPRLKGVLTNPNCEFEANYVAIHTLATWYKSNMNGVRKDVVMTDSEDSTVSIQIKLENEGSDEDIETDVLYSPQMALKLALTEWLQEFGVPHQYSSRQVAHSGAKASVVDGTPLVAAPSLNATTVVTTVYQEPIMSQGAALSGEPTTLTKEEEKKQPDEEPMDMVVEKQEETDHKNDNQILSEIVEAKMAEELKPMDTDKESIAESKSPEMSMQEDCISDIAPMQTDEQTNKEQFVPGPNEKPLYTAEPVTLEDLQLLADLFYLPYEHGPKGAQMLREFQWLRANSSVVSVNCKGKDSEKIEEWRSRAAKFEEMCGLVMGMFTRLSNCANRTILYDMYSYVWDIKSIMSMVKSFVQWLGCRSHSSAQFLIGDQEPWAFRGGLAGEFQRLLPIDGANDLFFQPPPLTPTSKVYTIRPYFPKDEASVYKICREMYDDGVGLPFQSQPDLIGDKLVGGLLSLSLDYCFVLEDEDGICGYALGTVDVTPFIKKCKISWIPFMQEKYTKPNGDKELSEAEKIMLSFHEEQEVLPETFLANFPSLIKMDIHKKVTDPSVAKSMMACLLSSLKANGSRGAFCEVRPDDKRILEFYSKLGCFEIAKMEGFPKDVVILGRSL", "assay": "peptide or protein array; Active Motif MODified Histone Peptide Array (384 modified histone peptides in duplicate, on the array); 100 nM protein in 20 mM Tris pH 7.5, 1 mM DTT, 0.5 mg/mL BSA, RT 1 hour; detected by anti-His6 antibody (also C-term tag antibody) and IR-800 secondary antibody", "settings": "both partners purified", "data": [{"binder": "B1", "values": [{"measurement": "binding result", "result": "binds"}]}]}
